For 36 molecules, EC50 and Kd results are on record in patent publication US20190375839A1 (JIANGSU HENGRUI MEDICINE, published 2019).

Where a chain is given by its changes, count along the chain named. Numbers in names are those of the source.

The labels stand for the following.
B1: Ch1701 (antibody, human IgG4 S228P, kappa, V domains shown)
VH: EVQLQQSGPELVKPGASVKISCKASGYTFTDYYMNWVKQSHGKSLEWIADIIPNNGGSKYNQKFKDKATLTVDKSSSTAYMELRSLTSEDSAVYYCATWGYGSSYRWFDYWGQGTLVSVSA
VL: DIQMTQSPASQSASLGESVTITCLASQPIGIWLAWYQQKPGKSPQLLIYAATSLADGVPSRFSGSGSGTKFSFKISSLQAEDFVSYYCQQLYSSPWTFGGGTKLEIKR
B2: h1701-005 (antibody, human IgG4 S228P, kappa, V domains shown)
VH: QVQLVQSGAEVKKPGASVKVSCKASGYTFTDYYMNWVRQAPGQGLEWMGDIIPNNGGSKYNQKFKDRVTMTTDTSTSTAYMELRSLRSDDTAVYYCARWGYGSSYRWFDYWGQGTLVTVSS
VL: DIQMTQSPSSLSASVGDRVTITCLASQPIGIWLAWYQQKPGKAPKLLIYAATSLADGVPSRFSGSGSGTDFTFTISSLQPEDIATYYCQQLYSSPWTFGGGTKVEIKR
notes: Humanized IgG4 (S228P)/kappa
B3: h1701-015 (antibody, human IgG4 S228P, kappa, V domains shown)
VH: B2 VH with M48I, G49A, V68A, M70L, R98T
VL: B2 VL
notes: Humanized IgG4 (S228P)/kappa
B4: h1701-006 (antibody, human IgG4 S228P, kappa, V domains shown)
VH: B2 VH
VL: B2 VL with A43S
notes: Humanized IgG4 (S228P)/kappa
B5: h1701-017 (antibody, human IgG4 S228P, kappa, V domains shown)
VH: B2 VH with R38K, M48I, G49A, V68A, M70L, D89E, R98T
VL: B2 VL
notes: Humanized IgG4 (S228P)/kappa
B6: h1701-014 (antibody, human IgG4 S228P, kappa, V domains shown)
VH: B2 VH with R38K, M48I, D89E, R98T
VL: B2 VL with A43S
notes: Humanized IgG4 (S228P)/kappa
B7: h1701-013 (antibody, human IgG4 S228P, kappa, V domains shown)
VH: B2 VH with R38K, M48I, D89E, R98T
VL: B2 VL
notes: Humanized IgG4 (S228P)/kappa
B8: h1701-010 (antibody, human IgG4 S228P, kappa, V domains shown)
VH: B2 VH with R98T
VL: B2 VL with A43S
notes: Humanized IgG4 (S228P)/kappa
B9: h1701-018 (antibody, human IgG4 S228P, kappa, V domains shown)
VH: B2 VH with R38K, M48I, G49A, V68A, M70L, D89E, R98T
VL: B2 VL with A43S
notes: Humanized IgG4 (S228P)/kappa
B10: h1701-008 (antibody, human IgG4 S228P, kappa, V domains shown)
VH: B2 VH with M48I
VL: B2 VL with A43S
notes: Humanized IgG4 (S228P)/kappa
B11: h1701-016 (antibody, human IgG4 S228P, kappa, V domains shown)
VH: B2 VH with M48I, G49A, V68A, M70L, R98T
VL: B2 VL with A43S
notes: Humanized IgG4 (S228P)/kappa
B12: h1701-011 (antibody, human IgG4 S228P, kappa, V domains shown)
VH: B2 VH with M48I, R98T
VL: B2 VL
notes: Humanized IgG4 (S228P)/kappa
B13: h1701-012 (antibody, human IgG4 S228P, kappa, V domains shown)
VH: B2 VH with M48I, R98T
VL: B2 VL with A43S
notes: Humanized IgG4 (S228P)/kappa
B14: h1799-012 (antibody, human IgG4 S228P, kappa)
heavy: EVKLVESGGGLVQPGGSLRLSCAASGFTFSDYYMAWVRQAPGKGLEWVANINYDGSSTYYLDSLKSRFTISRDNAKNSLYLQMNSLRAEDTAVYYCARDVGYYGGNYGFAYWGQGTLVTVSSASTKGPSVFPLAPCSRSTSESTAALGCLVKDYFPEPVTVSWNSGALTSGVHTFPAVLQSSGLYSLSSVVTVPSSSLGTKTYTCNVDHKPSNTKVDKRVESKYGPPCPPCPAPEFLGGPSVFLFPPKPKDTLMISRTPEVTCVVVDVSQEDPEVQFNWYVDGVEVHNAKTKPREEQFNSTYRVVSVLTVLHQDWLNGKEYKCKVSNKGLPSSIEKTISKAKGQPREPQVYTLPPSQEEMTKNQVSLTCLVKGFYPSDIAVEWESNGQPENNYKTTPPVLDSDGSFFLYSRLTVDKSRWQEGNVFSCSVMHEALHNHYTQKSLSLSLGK
light: DIQMTQSPSSLSASVGDRVTITCRASDNIYSYLAWYQQKPGKAPQLLVYNAKTLAEGVPSRFSGSGSGTDFTLTISSLQPEDFATYYCQQHYGSPLTFGQGTKLEIKRTVAAPSVFIFPPSDEQLKSGTASVVCLLNNFYPREAKVQWKVDNALQSGNSQESVTEQDSKDSTYSLSSTLTLSKADYEKHKVYACEVTHQGLSSPVTKSFNRGEC
notes: Humanized IgG4 (S228P)/kappa
B15: h1799-018 (antibody, human IgG4 S228P, kappa, V domains shown)
VH: EVKLVESGGGLVQPGGSLRLSCAASGFTFSDYYMAWVRQAPGKGLEWVANINYDGSSTYYLDSLKSRFTISRDNAKNSLYLQMNSLKAEDTAVYYCARDVGYYGGNYGFAYWGQGTLVTVSS
VL: DIQMTQSPSSLSASVGDRVTITCRASDNIYSYLAWYQQKPGKSPQLLVYNAKTLAEGVPSRFSGSGSGTDFTLTISSLQPEDFATYYCQQHYGSPLTFGQGTKLEIKR
notes: Humanized IgG4 (S228P)/kappa
B16: h1799-015 (antibody, human IgG4 S228P, kappa, V domains shown)
VH: B15 VH
VL: B15 VL with S43A, Q45K, V48I
notes: Humanized IgG4 (S228P)/kappa
B17: h1799-007 (antibody, human IgG4 S228P, kappa)
heavy: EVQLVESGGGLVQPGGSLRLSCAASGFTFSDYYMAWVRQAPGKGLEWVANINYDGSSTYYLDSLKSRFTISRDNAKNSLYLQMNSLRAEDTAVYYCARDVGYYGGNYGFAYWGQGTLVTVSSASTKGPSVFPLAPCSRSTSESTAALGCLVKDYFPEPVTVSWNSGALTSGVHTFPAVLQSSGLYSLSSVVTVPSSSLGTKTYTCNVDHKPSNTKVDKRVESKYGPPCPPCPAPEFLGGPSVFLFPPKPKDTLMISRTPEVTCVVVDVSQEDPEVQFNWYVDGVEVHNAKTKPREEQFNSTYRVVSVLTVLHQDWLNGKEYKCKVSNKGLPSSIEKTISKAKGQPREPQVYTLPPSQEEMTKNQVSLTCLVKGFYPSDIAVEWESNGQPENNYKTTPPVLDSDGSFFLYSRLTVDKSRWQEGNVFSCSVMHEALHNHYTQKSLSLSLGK
light: B14 light
notes: Humanized IgG4 (S228P)/kappa
B18: h1799-013 (antibody, human IgG4 S228P, kappa)
heavy: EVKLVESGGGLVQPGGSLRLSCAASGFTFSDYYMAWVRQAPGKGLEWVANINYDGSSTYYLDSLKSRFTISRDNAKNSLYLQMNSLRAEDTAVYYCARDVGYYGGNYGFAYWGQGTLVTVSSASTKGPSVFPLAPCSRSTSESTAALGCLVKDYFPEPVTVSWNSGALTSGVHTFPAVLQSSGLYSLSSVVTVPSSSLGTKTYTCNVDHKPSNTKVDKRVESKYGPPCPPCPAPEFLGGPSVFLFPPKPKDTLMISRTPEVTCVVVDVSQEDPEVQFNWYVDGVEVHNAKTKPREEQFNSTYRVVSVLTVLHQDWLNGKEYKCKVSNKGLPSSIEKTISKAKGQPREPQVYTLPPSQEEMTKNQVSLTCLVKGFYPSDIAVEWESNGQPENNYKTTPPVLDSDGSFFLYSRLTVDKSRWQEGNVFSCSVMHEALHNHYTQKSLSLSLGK
light: B14 light with A43S
notes: Humanized IgG4 (S228P)/kappa
B19: h1799-016 (antibody, human IgG4 S228P, kappa, V domains shown)
VH: B15 VH
VL: B15 VL with S43A, Q45K
notes: Humanized IgG4 (S228P)/kappa
B20: h1799-017 (antibody, human IgG4 S228P, kappa, V domains shown)
VH: B15 VH
VL: B15 VL with S43A
notes: Humanized IgG4 (S228P)/kappa
B21: h1799-009 (antibody, human IgG4 S228P, kappa)
heavy: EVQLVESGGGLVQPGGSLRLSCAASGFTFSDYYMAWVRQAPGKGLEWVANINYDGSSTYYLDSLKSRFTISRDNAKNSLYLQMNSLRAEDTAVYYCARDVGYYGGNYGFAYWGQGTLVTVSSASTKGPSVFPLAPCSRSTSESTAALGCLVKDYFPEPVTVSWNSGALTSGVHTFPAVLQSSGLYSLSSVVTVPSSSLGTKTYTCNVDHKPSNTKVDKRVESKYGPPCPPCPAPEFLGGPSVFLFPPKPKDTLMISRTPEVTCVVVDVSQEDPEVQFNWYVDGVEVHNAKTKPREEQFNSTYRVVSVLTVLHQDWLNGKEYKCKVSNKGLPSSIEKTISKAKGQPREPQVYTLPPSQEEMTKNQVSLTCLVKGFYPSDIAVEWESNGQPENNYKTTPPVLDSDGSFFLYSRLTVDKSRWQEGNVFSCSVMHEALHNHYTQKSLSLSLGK
light: B14 light with A43S, T85S
notes: Humanized IgG4 (S228P)/kappa
B22: h1799-014 (antibody, human IgG4 S228P, kappa)
heavy: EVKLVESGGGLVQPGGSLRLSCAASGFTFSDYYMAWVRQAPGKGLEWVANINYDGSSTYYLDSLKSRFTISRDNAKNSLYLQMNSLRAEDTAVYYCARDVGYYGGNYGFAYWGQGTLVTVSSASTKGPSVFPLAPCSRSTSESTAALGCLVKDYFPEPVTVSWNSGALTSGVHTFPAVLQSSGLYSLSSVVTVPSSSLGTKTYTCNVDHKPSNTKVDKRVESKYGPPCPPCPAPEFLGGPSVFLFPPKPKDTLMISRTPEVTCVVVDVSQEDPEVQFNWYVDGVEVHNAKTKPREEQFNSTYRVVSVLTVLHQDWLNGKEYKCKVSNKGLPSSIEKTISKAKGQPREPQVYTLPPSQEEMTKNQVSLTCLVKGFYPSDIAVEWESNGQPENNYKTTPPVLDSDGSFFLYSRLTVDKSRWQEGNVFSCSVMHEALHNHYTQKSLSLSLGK
light: B14 light with A43S, T85S
notes: Humanized IgG4 (S228P)/kappa
B23: h1799-011 (antibody, human IgG4 S228P, kappa)
heavy: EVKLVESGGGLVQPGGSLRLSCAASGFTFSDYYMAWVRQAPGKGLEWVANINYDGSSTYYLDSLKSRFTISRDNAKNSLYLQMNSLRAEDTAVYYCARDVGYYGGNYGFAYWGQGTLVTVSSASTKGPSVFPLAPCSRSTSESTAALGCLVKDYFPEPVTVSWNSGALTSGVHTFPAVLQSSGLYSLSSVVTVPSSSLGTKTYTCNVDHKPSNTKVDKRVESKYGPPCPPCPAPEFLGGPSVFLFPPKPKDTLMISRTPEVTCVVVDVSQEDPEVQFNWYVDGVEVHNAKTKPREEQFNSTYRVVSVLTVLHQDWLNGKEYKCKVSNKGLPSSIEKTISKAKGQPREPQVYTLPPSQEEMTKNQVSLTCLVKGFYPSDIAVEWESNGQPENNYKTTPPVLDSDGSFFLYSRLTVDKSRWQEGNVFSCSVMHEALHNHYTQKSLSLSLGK
light: B14 light with Q45K
notes: Humanized IgG4 (S228P)/kappa
B24: h1799-019 (antibody, human IgG4 S228P, kappa, V domains shown)
VH: B15 VH
VL: B15 VL with T85S
notes: Humanized IgG4 (S228P)/kappa
B25: h1799-008 (antibody, human IgG4 S228P, kappa)
heavy: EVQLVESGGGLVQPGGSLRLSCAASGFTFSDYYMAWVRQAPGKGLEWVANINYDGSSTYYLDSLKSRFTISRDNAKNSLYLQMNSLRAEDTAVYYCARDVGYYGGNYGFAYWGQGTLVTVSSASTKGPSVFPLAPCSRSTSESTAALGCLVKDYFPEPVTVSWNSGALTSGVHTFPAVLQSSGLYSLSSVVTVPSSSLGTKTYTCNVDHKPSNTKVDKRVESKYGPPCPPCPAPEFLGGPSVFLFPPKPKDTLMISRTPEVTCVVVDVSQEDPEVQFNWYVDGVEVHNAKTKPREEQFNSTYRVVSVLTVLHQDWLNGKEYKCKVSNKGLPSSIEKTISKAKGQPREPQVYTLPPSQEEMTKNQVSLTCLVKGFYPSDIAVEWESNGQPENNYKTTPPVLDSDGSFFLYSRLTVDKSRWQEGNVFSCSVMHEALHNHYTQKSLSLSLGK
light: B14 light with A43S
notes: Humanized IgG4 (S228P)/kappa
B26: h1701-009NHG (antibody, human IgG4 S228P, kappa, V domains shown)
VH: B2 VH with N55H, R98T
VL: B2 VL
notes: HCDR2 point-mutation variant of h1701-009 (NNG to NHG); IgG4 (S228P)/kappa
B27: h1701-009NNA (antibody, human IgG4 S228P, kappa, V domains shown)
VH: B2 VH with G56A, R98T
VL: B2 VL
notes: HCDR2 point-mutation variant of h1701-009 (NNG to NNA); IgG4 (S228P)/kappa
B28: h1701-009NAG (antibody, human IgG4 S228P, kappa, V domains shown)
VH: B2 VH with N55A, R98T
VL: B2 VL
notes: HCDR2 point-mutation variant of h1701-009 (NNG to NAG); IgG4 (S228P)/kappa
B29: h1701-009NVG (antibody, human IgG4 S228P, kappa, V domains shown)
VH: B2 VH with N55V, R98T
VL: B2 VL
notes: HCDR2 point-mutation variant of h1701-009 (NNG to NVG); IgG4 (S228P)/kappa
B30: h1701-009NHA (antibody, human IgG4 S228P, kappa, V domains shown)
VH: B2 VH with N55H, G56A, R98T
VL: B2 VL
notes: HCDR2 point-mutation variant of h1701-009 (NNG to NHA); IgG4 (S228P)/kappa
B31: h1701-009NEA (antibody, human IgG4 S228P, kappa, V domains shown)
VH: B2 VH with N55E, G56A, R98T
VL: B2 VL
notes: HCDR2 point-mutation variant of h1701-009 (NNG to NEA); IgG4 (S228P)/kappa
B32: h1701-009NLG (antibody, human IgG4 S228P, kappa, V domains shown)
VH: B2 VH with N55L, R98T
VL: B2 VL
notes: HCDR2 point-mutation variant of h1701-009 (NNG to NLG); IgG4 (S228P)/kappa
B33: h1701-009NEG (antibody, human IgG4 S228P, kappa, V domains shown)
VH: B2 VH with N55E, R98T
VL: B2 VL
notes: HCDR2 point-mutation variant of h1701-009 (NNG to NEG); IgG4 (S228P)/kappa
B34: h1701-009NMG (antibody, human IgG4 S228P, kappa, V domains shown)
VH: B2 VH with N55M, R98T
VL: B2 VL
notes: HCDR2 point-mutation variant of h1701-009 (NNG to NMG); IgG4 (S228P)/kappa
B35: h1701-009NKG (antibody, human IgG4 S228P, kappa, V domains shown)
VH: B2 VH with N55K, R98T
VL: B2 VL
notes: HCDR2 point-mutation variant of h1701-009 (NNG to NKG); IgG4 (S228P)/kappa
B36: h1701-009NMA (antibody, human IgG4 S228P, kappa, V domains shown)
VH: B2 VH with N55M, G56A, R98T
VL: B2 VL
notes: HCDR2 point-mutation variant of h1701-009 (NNG to NMA); IgG4 (S228P)/kappa

The first assay deals with T1, human TIM-3 full length, overexpressed on CHO-S cells (human, UniProt Q8TDQ0 22-301).
T1 construct: cells fixed with 4% PFA on plates; also called HAVCR2; Tim-3-overexpressing CHO-S cells
Kind of assay: cell-based ELISA on fixed CHO-S cells overexpressing human TIM-3.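 Also: antibody binding at serial dilutions to PFA-fixed cells for 1 h at 37 °C, read as TMB colour signal after acid stop.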
Description: (§1) The binding activity of anti-TIM-3 antibody to CHO-S cells overexpressing human TIM-3 is detected via a binding assay. […] TIM-3-overexpressing cells were immobilized on a 96-well plate. After the addition of the antibody, signal strength was used to determine the binding activity of the antibody to Tim-3-overexpressing CHO-S cells.
(§2) The cells were inoculated on a 96-well plate with 4E5/ml density, 100 μg/well, and cultured overnight. Supernatant was discarded and the plate was washed three times with PBS. 100 μl/well of 4% PFA was added into each well, and the plate was fixed at room temperature for 30 minutes. The plate was washed three times with PBS. The liquid was discarded, and 200 μl of blocking solution (5% skim milk (Guangming skim milk powder) diluted with PBS) was added to each well. The plate was incubated at 37° C. for 2.5 h. Then the blocking solution was discarded, and the plate was washed 5 times with PBST buffer (pH 7.4 PBS containing 0.05% Tween-20). 50 μl/well of various concentrations of antibodies to be tested (antibody via hybridoma purification or humanized antibody), diluted with sample buffer, were added into each well, and incubated at 37° C. for 1 h. […] The plate was washed 6 times with PBST, and 100 μl/well TMB chromogenic substrates (KPL, Cat, No., 52-00-03) was added to each well. The plate was incubated at room temperature for 5-15 min. Reaction was stopped by the addition of 50 μl of 1 M H₂SO₄ to each well.
Regarding B1, the response was half-maximal at 0.166 nM (EC50). That is a sub-nanomolar value. On the same count and under the same terms, to B2 belongs 0.602 nM. Still for that read-out and setting: to B3 belongs 0.265 nM; to B4, 0.735 nM. Same read-out and setting: to B5 belongs 0.105 nM; to B6, 0.124 nM. Regarding B7, it took 0.199 nM to reach a half-maximal effect (EC50). In turn, B8 registered a half-maximal effective concentration (EC50) of 0.069 nM. Against the preceding molecule, the EC50 is about 2.9-fold lower.

The molecule B9 had an EC50 of 0.087 nM. Consider B10, for which the EC50 was determined as 2.42 nM. Same read-out and setting: to B11 belongs 0.058 nM; to B12, 0.188 nM; to B13, 0.221 nM.

The molecule B14 displayed a 50% effective concentration (EC50) of 0.158 nM. For B15, a half-maximal effect (EC50) was put at 0.215 nM. On the same count and under the same terms, to B16 belongs 0.188 nM. Regarding B17, the concentration for a half-maximal effect (EC50) was found to be 0.109 nM.

As to B18, the half-maximal effective concentration (EC50) amounted to 0.139 nM. Turning to B19, the concentration for a half-maximal effect (EC50) was 0.117 nM. As to B20, the EC50 was determined as 0.194 nM. Still for that read-out and setting: to B21 belongs 0.076 nM; to B22, 0.116 nM; to B23, 0.114 nM. B24: the response was half-maximal at 0.119 nM (EC50).

The molecule B25 displayed a concentration for a half-maximal effect (EC50) of 0.067 nM.

In the next assay the target is T2, Extracellular domain of TIM-3 with Flag and His tag (human).
T2 construct: also called TIM-3-Flag-His
In words: Biacore SPR; antibody as stationary phase, 'TIM-3-His' as mobile phase. In general terms: SPR reads the build-up and loss of mass on a sensor chip optically.
B26 came in with a Kd of 0.64 nM. Same read-out and setting: to B27 belongs 0.569 nM; to B28, 0.579 nM. Same read-out and setting: to B29 belongs 0.581 nM; to B30, 0.597 nM.

As for B31, the affinity, expressed as Kd, was 0.653 nM. B32 displayed a Kd of 0.64 nM.

As for B33, binding was characterised by a dissociation constant (Kd) of 0.64 nM. Still for that read-out and setting: to B34 belongs 0.675 nM; to B35, 0.472 nM. The same measure, in the same setting: to B36 belongs 0.653 nM.

The target in a further assay is T1, human TIM-3 full length, overexpressed …. In words: cell-based ELISA on CHO-S cells overexpressing human TIM-3. A general note: An ELISA detects its analyte on a solid surface through an enzyme-linked reagent.
Description: as §1, §2
Take B26: the concentration for a half-maximal effect (EC50) stood at 0.317 nM. Still for that read-out and setting: to B27 belongs 0.515 nM. Same read-out and setting: to B28 belongs 0.512 nM. On the same count and under the same terms, to B29 belongs 0.717 nM; to B30, 0.53 nM; to B31, 0.667 nM.

As to B32, the concentration for a half-maximal effect (EC50) is 0.637 nM. The EC50 values of the last two molecules are within 1.5-fold of each other. Still for that read-out and setting: to B33 belongs 0.673 nM; to B34, 0.603 nM; to B35, 0.438 nM.

As to B36, the midpoint of the response, the EC50, lay at 0.629 nM.

A further assay has as its target T2, Extracellular domain of TIM-3 with Flag …. In words: Biacore SPR; antibody captured by anti-human capture antibody on CM5, TIM-3-Flag-His in mobile phase.
Excerpt: The reaction signal was detected in real-time using Biacore instrument to obtain the association and dissociation curves. […] In the experiment, after each cycle of dissociation was finished, the biosensor chip was washed with the regenerative solution in the human capture antibody Kit.
For the molecule B1, the affinity, expressed as Kd, was 1.39 nM. In the case of B8, the Kd stood at 2.25 nM. The molecule B11 showed an equilibrium dissociation constant (Kd) of 1.6 nM.

The EC50 is the concentration at which the effect is half-maximal. Lower therefore signals greater potency. In general, Kd refers to the concentration at which binding is half-saturated. A high value points to lower affinity.
